The values below are quoted from earlier work in article PMC9971567.

This data set has as its target Intimin C terminus (Escherichia coli) (UniProt P19809).

pKd: −log10 of the molar value.

UniProt P19809, sequence (P19809 660-939): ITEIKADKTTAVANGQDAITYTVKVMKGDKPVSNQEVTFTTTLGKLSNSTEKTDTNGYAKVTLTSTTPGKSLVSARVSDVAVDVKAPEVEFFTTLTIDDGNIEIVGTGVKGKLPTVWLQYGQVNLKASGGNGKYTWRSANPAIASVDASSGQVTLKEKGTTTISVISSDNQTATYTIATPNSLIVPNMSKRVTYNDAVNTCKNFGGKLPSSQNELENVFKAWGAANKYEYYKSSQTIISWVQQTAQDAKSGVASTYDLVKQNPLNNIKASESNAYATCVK

A word on the pKd: it is −log10 of the Kd, conventionally taken in molar units. In the case of Tir central loop (from UniProt B7UM99), the negative logarithm of the Kd (pKd) was 8.00.
